Assay results: patent publication US20030091584A1 (AstraZeneca / MedImmune, published 2003)
Substitutions are numbered along the chain they refer to. Where “and” joins values, the source holds several entries; their conditions need not be identical. Equal values may be shown once.

What was measured:
[1] = target: T1, F protein of wild type RSV A/Long (respiratory syncytial virus strain …, UniProt P12568 26-574); experiment: cell-based or functional assay
[2] = target: T1, F protein of wild type RSV A/Long; experiment: cell-based or functional assay; remark: listed apart in the source
[3] = target: T2, RSV F glycoprotein (NUF4) (respiratory syncytial virus); experiment: BIAcore, mAb vs NUF4 (1:1)
T2 chain 1: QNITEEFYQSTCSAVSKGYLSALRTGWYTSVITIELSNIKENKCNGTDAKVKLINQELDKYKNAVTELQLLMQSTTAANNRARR
T2 chain 2: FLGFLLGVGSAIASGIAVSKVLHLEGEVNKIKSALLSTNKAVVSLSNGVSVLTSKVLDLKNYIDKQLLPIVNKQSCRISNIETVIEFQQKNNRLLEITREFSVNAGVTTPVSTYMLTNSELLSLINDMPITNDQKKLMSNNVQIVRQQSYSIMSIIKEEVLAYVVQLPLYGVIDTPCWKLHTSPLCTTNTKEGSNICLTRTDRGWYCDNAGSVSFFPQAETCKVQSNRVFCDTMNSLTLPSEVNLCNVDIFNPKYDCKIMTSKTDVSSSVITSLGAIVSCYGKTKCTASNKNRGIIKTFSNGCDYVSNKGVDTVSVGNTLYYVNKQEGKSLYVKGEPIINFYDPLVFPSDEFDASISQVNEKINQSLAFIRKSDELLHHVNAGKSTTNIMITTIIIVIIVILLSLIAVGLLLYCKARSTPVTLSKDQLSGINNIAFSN

[4] = target: T2, RSV F glycoprotein (NUF4); experiment: BIAcore, mAb vs NUF4 (2:1)
Bac-F = target: T3, Bac-F; experiment: BIAcore, mAb vs Bac-F (1:1)
T3 construct: Construct and strain not described

[5] = target: T4, F protein of RSV A/Long MARM with K272N (respiratory syncytial virus strain …, UniProt P12568 26-574); experiment: IFA on MARM-infected HEp-2 cells
T4 construct: whole, on cells; also called MARM B1

[6] = target: T5, F protein of RSV A/Long MARM with K272M (respiratory syncytial virus strain …, UniProt P12568 26-574); experiment: IFA on MARM-infected HEp-2 cells
T5 construct: whole, on cells; Seven independent isolates with the same change are kept as one molecule; also called MARM B2; MARM B3

[7] = target: T6, F protein of RSV A/Long MARM with K272T (respiratory syncytial virus strain …, UniProt P12568 26-574); experiment: IFA on MARM-infected HEp-2 cells
T6 construct: whole, on cells; also called MARM B7; MARM B10

[8] = target: T7, F protein of RSV A/Long MARM with K272Q (respiratory syncytial virus strain …, UniProt P12568 26-574); experiment: IFA on MARM-infected HEp-2 cells
T7 construct: whole, on cells; also called MARM B9; B9

[9] = target: T8, F protein of RSV A/Long MARM with K272E, N276Y (respiratory syncytial virus strain …, UniProt P12568 26-574); experiment: IFA on MARM-infected HEp-2 cells
T8 construct: whole, on cells; also called MARM #10; MARM 10

[10] = target: T9, F protein of RSV A/Long MARM with K272E (respiratory syncytial virus strain …, UniProt P12568 26-574); experiment: IFA on MARM-infected HEp-2 cells
T9 construct: whole, on cells; also called MARM #6; MARM #9

[11] = target: T10, F protein of RSV MARM with K272Q, N262K (respiratory syncytial virus strain …, UniProt P12568 26-574); experiment: IFA on MARM-infected HEp-2 cells
T10 construct: whole, on cells; also called MARM #13; MARM 13

[12] = target: T2, RSV F glycoprotein (NUF4); experiment: ITC, NUF4 titrated into antibody
[13] = target: T2, RSV F glycoprotein (NUF4); experiment: ITC, NUF4 titrated into antibody, 35 °C
[14] = target: T2, RSV F glycoprotein (NUF4); experiment: ITC, NUF4 titrated into antibody, 35 °C (1/Kb)
[15] = target: RSV F protein (immobilized on the BIAcore sensor chip) (respiratory syncytial virus); experiment: BIAcore, immobilized F protein;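 note: fab fragments as analytes binding F protein coupled to the chip via EDC/NHS chemistry, with blank surface signal subtracted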

B1: SYNAGIS® (monoclonal antibody) (antibody, V domains shown)
VH: QVTLRESGPALVKPTQTLTLTCTFSGFSLSTSGMSVGWIRQPPGKALEWLADIWWDDKKDYNPSLKSRLTISKDTSKNQVVLKVTNMDPADTATYYCARSMITNWYFDVWGAGTTVTVSS
VL: DIQMTQSPSTLSASVGDRVTITCKCQLSVGYMHWYQQKPGKAPKLLIYDTSKLASGVPSRFSGSGSGTEFTLTISSLQPDDFATYYCFQGSGYPFTFGGGTKLEIK
notes: also called SYNAGIS ®/SYNAGIS ® (HC/LC)
- EC50 (nM), in vitro microneutralization of RSV Long [1]: 3.57 nM
- Mean IC50 (Control), RSV microneutralization [2]: 0.535 µg/mL
- Mean IC50 (Curve), RSV microneutralization [2]: 0.453 µg/mL
- Kd [3]: 8.7 nM
- Kd [4]: 312 nM
- Kd (Bac-F): 3.9 nM
- binding result [5]: no binding (tested: 250 ng/ml)
- binding result [6]: no binding (tested: 250 ng/ml)
- binding result [7]: no binding (tested: 250 ng/ml)
- binding result [8]: no binding (tested: 250 ng/ml)
- binding result [9]: no binding (tested: 250 ng/ml)
- binding result [10]: no binding (tested: 250 ng/ml)
- binding result [11]: no binding (tested: 250 ng/ml)

B2: A4B4 (monoclonal antibody) (antibody, V domains shown)
VH: B1 VH with S32A, D60H, S67D, S100D, T103F, W105F, A112Q
VL: B1 VL with K24S, C25A, Q26S, L27S, S28R, S51F, K52F, A54D
notes: mAb; also called A4B4/A4B4 (HC/LC)
- Fold Difference (Control IC50) [2]: 35 fold
- Fold Difference (Curve IC50) [2]: 27 fold
- Mean IC50 (Control), RSV microneutralization [2]: 0.0154 µg/mL
- Mean IC50 (Curve), RSV microneutralization [2]: 0.0171 µg/mL
- Kd [3]: 0.57 nM
- koff [3]: 0.000282 s⁻¹
- kon [3]: 496000 M⁻¹ s⁻¹
- number in parentheses after KD (fold against SYNAGIS = 1) [3]: 15 fold
- Kd [4]: 2 nM
- koff [4]: 0.000401 s⁻¹
- kon [4]: 203000 M⁻¹ s⁻¹
- number in parentheses after KD (fold against SYNAGIS = 1) [4]: 156 fold
- Kd (Bac-F): 0.02 nM
- koff (Bac-F): 1.06e-05 s⁻¹
- kon (Bac-F): 434000 M⁻¹ s⁻¹
- number in parentheses after KD (fold against SYNAGIS = 1) (Bac-F): 195 fold
- ΔHb (binding enthalpy) [12]: 22.2 kcal/mol
- binding result [9]: no binding (tested: 250 ng/ml)
- binding result [10]: no binding (tested: 250 ng/ml)
- binding result [11]: no binding (tested: 250 ng/ml)
- Ka [13]: 2.69e+08 M⁻¹
- Kd [14]: ~3.7 nM

B3: A17d4 (monoclonal antibody) (antibody, V domains shown)
VH: B1 VH with S32A, D57G, D60S, S67D, S100D, T103F, W105F, A112Q
VL: B1 VL with K24L, C25P, Q26S, L27S, S28R, S51M, K52Y, L53Q, G90F
notes: mAb with framework and constant regions of SYNAGIS
- Fold Difference (Control IC50) [2]: 15 fold
- Fold Difference (Curve IC50) [2]: 13 fold
- Mean IC50 (Control), RSV microneutralization [2]: 0.0354 µg/mL
- Mean IC50 (Curve), RSV microneutralization [2]: 0.0342 µg/mL
- Kd [3]: 0.73 nM
- koff [3]: 0.000362 s⁻¹
- kon [3]: 499000 M⁻¹ s⁻¹
- number in parentheses after KD (fold against SYNAGIS = 1) [3]: 12 fold
- Kd [4]: 1.11 nM
- koff [4]: 0.000292 s⁻¹
- kon [4]: 264000 M⁻¹ s⁻¹
- number in parentheses after KD (fold against SYNAGIS = 1) [4]: 281 fold
- ΔHb (binding enthalpy) [12]: 16.3 kcal/mol
- Ka [13]: 7.5e+07 M⁻¹
- Kd [14]: 13 nM

B4: A13c4 (Fab fragment) (Fab, V domains shown)
VH: B1 VH with S32A, D57G, D60S, S67D, S100D, T103F, W105F, A112Q
VL: B1 VL with K24S, C25L, Q26S, L27S, S28R, S51M, K52Y, L53Q, A54S, L103V
notes: Fab
- EC50 (nM), in vitro microneutralization of RSV Long [1]: 0.52 nM
- Fold Difference (Control IC50) [2]: 21 fold
- Fold Difference (Curve IC50) [2]: 17 fold
- Mean IC50 (Control), RSV microneutralization [2]: 0.0258 µg/mL
- Mean IC50 (Curve), RSV microneutralization [2]: 0.0264 µg/mL
- koff [15]: 0.00028 s⁻¹
- kon [15]: 781000 M⁻¹ s⁻¹ and 735000 M⁻¹ s⁻¹

B5: A13c4 (monoclonal antibody) (antibody, V domains shown)
VH: B1 VH with S32A, D57G, D60S, S67D, S100D, T103F, W105F, A112Q
VL: B1 VL with K24S, C25L, Q26S, L27S, S28R, S51M, K52Y, L53Q, A54S, L103V
notes: as for B3
- Fold Difference (Control IC50) [2]: 14 fold
- Fold Difference (Curve IC50) [2]: 12 fold
- Mean IC50 (Control), RSV microneutralization [2]: 0.0375 µg/mL
- Mean IC50 (Curve), RSV microneutralization [2]: 0.0376 µg/mL
- Kd [3]: 0.75 nM
- koff [3]: 0.000272 s⁻¹
- kon [3]: 365000 M⁻¹ s⁻¹
- number in parentheses after KD (fold against SYNAGIS = 1) [3]: 12 fold
- Kd [4]: 0.7 nM
- koff [4]: 0.000225 s⁻¹
- kon [4]: 320000 M⁻¹ s⁻¹
- number in parentheses after KD (fold against SYNAGIS = 1) [4]: 446 fold
- ΔHb (binding enthalpy) [12]: 16 kcal/mol
- Ka [13]: 1.07e+08 M⁻¹
- Kd [14]: 9 nM
